Laboratory results: patent US20240033331A1, “REDUCING IMMUNOGENICITY TO PEGLOTICASE” (Horizon Therapeutics USA, Inc., priority 2019, published 2024)
Like-named read-outs stand apart in the source and are kept apart here.

How the values were obtained:
[1] = tested on: patients treated with allopurinol; conditions: cited from earlier work
[2] = tested on: lupus nephritis patients; conditions: in vivo; cited from earlier work
[3] = KXX exposure (AUC) by patient weight and age; type: in vivo, human
Excerpt: In some embodiments, heavier and/or younger patients may have a higher incidence of anti-KXX antibodies, or may have higher anti-KXX drug titers, than lighter and/or older patients. In other embodiments, lighter and/or older patients may have higher drug loading of KXX than heavier and/or younger patients. In some embodiments, lighter patients may have higher exposures of KXX than heavier patients. For example, in some embodiments, lighter patients may have greater than 2-fold exposure to KXX than heavier patients. In some embodiments, lower drug levels in a patient may result in anti-KXX antibodies. […] In other embodiments, older patients may have higher exposures of KXX than younger patients. For example, in some embodiments, older patients may have greater than 2-fold exposure to KXX than younger patients. […] Thus, in some embodiments, additional 8-mg doses of KXX may be beneficial for younger and/or heavier patients. In other embodiments, younger and/or heavier patients may benefit from one or more loading doses of 16 mg of KXX.

[4] = tested on: hyperuricemic patients (SUA >8 mg/dL) with symptomatic gout; conditions: cited from earlier work; for incidence of infusion-related reactions: pegloticase 8 mg
[5] = tested on: patients receiving pegloticase; conditions: cited from earlier work; for patients maintaining a response to pegloticase: another study
[6] = tested on: patients; conditions: bi-weekly or every 4 weeks for up to 30 months; 149 patients; cited from earlier work
[7] = tested on: patients treated with pegloticase; conditions: cited from earlier work
[8] = tested on: subjects with refractory gout; conditions: doses of 4 to 12 mg; from 11.1±0.6 mg/dL before; cited from earlier work
[9] = diluted in infusion bags, cited from earlier work
[10] = human, in vivo; cited from earlier work
[11] = tested on: serum proteins; conditions: cited from earlier work
[12] = tested on: rats; conditions: cited from earlier work
[13] = tested on: rabbits; conditions: cited from earlier work

## Oc1ncnc2[nH]ncc12 [allopurinol]
[1]
  patients developing allergic reactions: Approximately 2%
  severe hypersensitivity syndrome: about 0.4%

## rituximab: biologic given with MMF and glucocorticoids in a lupus nephritis trial
[2]
  rate of serious infections: 16.6 /100 patient-years

## pegloticase
[3]; heavier patients
  mean area under the curve (AUC): about 4.04 mg/L
[3]; human, in vivo
  exposure, lighter versus heavier patients: greater than 2 fold
  exposure, older versus younger patients: greater than 2 fold
[3]; lighter patients
  mean area under the curve (AUC): about 8.92 mg/L
[3]; older patients
  mean area AUC: about 8.86 mg/L
[3]; younger patients
  mean area AUC: about 3.93 mg/L
[4]; 20/21 patients
  patients with IRs in whom loss of response (return to SUA >6 mg/dL) preceded the first IR: 95%
[4]; biweekly dosing
  incidence of infusion-related reactions: 26%
[4]; every-4-week dosing regimen
  incidence of infusion-related reactions: 40%
[5]; 31 of 52 patients
  patients with titers exceeding 1:2430 who developed IRs: 60%
[5]; antibody titer exceeding 1:2430 at any time, 7 of 65
  patients maintaining a response to pegloticase: 10.8%
[5]; never had an antibody titer above 1:2430, 58/65
  patients maintaining a response to pegloticase: 89.2%
[5]; one study, 69 of 169 patients
  patients who developed high titer anti-pegloticase antibodies and subsequently lost response: 41%
[6]
  long-term safety: No new safety signals were observed
[7]; ecchymoses, sore throat, constipation, chest pain, vomiting
  other uncommon symptoms, share of patients: at least 5%
[7]; gout flares, infusion reactions, nausea, contusion or ecchymosis, nasopharyngitis, constipation, chest pain, anaphylaxis, vomiting
  most common adverse reactions, share of treated patients: ≥ 5%
[7]; human, in vivo
  anaphylaxis, frequency: 6.5%
[7]; pegloticase 8 mg every 2 weeks
  infusion reactions, share of patients: 26%
[8]
  pUAc after dosing, mean±SD: 1.0±0.5 mg/dL
[9]; 2° C. to 8° C.
  time stable after dilution: 4 h
[9]; room temperature (20° C. to 25° C.)
  time stable after dilution: 4 h

## COc1c(C)c2c(c(O)c1C/C=C(\C)CCC(=O)OCCN1CCOCC1)C(=O)OC2 [MMF, 2-morpholinoethyl (E)-6-(1,3-dihydro4-hydroxy-6-methoxy-7-methyl-3-oxo-5-isobenzofuranyl)-4-methyl-4-hexenoate]
[10]
  time after which not detectable in urine: 8 h
[11]
  bound to serum proteins: 30%
[12]
  teratogenicity: teratogenic effects
[13]
  teratogenicity: teratogenic effects

## Sc1ncnc2nc[nH]c12 [mercaptopurine, 6-mercaptopurine]
[10]
  time after which not detectable in urine: 8 h
[11]
  bound to serum proteins: 30%
